The target in the assay is T1, histone H4 (in the PARylated nucleosome) (UniProt P62799 1-103).
T1 construct: histone H4 as in the nucleosome m2; The H4 chain of m2, written on its own for the contact with ALC1's C-ATPase lobe; also called H4 tail
As to the kind of experiment: cryo-EM structure; re-analysis of the public dataset EMPIAR-10739 in CryoSPARC: WT ALC1 with an enzymatically PARylated nucleosome (Widom 601 DNA), sample contained ADP-BeF3; 15,740 particles, global resolution 6.60 Å, domains fitted as rigid bodies. The settings on record: both partners purified.

B1: Amplified in Liver Cancer 1 (ALC1), wild type (enzyme)
chain: MERAGATSRGGQAPGFLLRLHTEGRAEAARVQEQDLRQWGLTGIHLRSYQLEGVNWLAQRFHCQNGCILGDEMGLGKTCQTIALFIYLAGRLNDEGPFLILCPLSVLSNWKEEMQRFAPGLSCVTYAGDKEERACLQQDLKQESRFHVLLTTYEICLKDASFLKSFPWSVLVVDEAHRLKNQSSLLHKTLSEFSVVFSLLLTGTPIQNSLQELYSLLSFVEPDLFSKEEVGDFIQRYQDIEKESESASELHKLLQPFLLRRVKAEVATELPKKTEVVIYHGMSALQKKYYKAILMKDLDAFENETAKKVKLQNILSQLRKCVDHPYLFDGVEPEPFEVGDHLTEASGKLHLLDKLLAFLYSGGHRVLLFSQMTQMLDILQDYMDYRGYSYERVDGSVRGEERHLAIKNFGQQPIFVFLLSTRAGGVGMNLTAADTVIFVDSDFNPQNDLQAAARAHRIGQNKSVKVIRLIGRDTVEEIVYRKAASKLQLTNMIIEGGHFTLGAQKPAADADLQLSEILKFGLDKLLASEGSTMDEIDLESILGETKDGQWVSDALPAAEGGSRDQEEGKNHMYLFEGKDYSKEPSKEDRKSFEQLVNLQKTLLEKASQEGRSLRNKGSVLIPGLVEGSTKRKRVLSPEELEDRQKKRQEAAAKRRRLIEEKKRQKEEAEHKKKMAWWESNNYQSFCLPSEESEPEDLENGEESSAELDYQDPDATSLKYVSGDVTHPQAGAEDALIVHCVDDSGHWGRGGLFTALEKRSAEPRKIYELAGKMKDLSLGGVLLFPVDDKESRNKGQDLLALIVAQHRDRSNVLSGIKMAALEEGLKKIFLAAKKKKASVHLPRIGHATKGFNWYGTERLIRKHLAARGIPTYIYYFPRSKSAVLHSQSSSSSSRQLVP
notes: ALC1 (chromatin remodeler), human, UniProt Q86WJ1; wild type; residues 28-874 are modelled in the map; The sample is that of the public dataset EMPIAR-10739; also called WT ALC1
For the molecule B1, the binding result is listed as “binds”.
